Data published in patent publication US6372438.
Square brackets hold non-standard residues; d marks the D form. Ends that are not written are not given here. pY = N[C@@H](Cc1ccc(OP(=O)(O)O)cc1)C(=O)O

Molecular target: 85 kD protein / PI3 kinase (phosphatidylinositol 3' kinase) of BALB/c 3T3 cells (mouse (BALB/c 3T3 cells))
Experiment: competition: range of peptide concentrations preincubated with 3T3 lysate before immobilised receptor m1; in vitro kinase and PI3 kinase assays

Chain of 85 kD protein / PI3 kinase (phosphatidylinositol 3' kinase) of BALB/c 3T3 cells (mouse (BALB/c 3T3 cells)) (P26450 2-724): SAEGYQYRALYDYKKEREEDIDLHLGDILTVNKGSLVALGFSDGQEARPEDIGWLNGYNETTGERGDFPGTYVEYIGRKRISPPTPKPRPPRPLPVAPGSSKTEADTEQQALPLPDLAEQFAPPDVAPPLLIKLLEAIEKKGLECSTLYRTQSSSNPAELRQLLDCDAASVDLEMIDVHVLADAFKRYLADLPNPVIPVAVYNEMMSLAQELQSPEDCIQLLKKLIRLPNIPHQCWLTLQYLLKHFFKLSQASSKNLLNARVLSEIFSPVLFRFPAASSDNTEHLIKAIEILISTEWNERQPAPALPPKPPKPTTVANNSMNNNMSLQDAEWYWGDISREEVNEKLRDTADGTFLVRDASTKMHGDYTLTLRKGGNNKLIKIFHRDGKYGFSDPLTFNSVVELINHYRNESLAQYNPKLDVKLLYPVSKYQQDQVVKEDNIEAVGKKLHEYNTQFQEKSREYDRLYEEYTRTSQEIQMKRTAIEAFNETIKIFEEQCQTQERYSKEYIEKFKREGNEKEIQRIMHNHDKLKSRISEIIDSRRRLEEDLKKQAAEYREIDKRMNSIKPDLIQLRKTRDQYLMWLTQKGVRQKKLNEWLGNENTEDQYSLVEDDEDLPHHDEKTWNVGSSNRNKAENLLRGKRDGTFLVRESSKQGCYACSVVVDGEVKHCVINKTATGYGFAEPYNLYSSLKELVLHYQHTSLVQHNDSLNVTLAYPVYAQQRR

IC50: < 5 µM
Binder: GGYMDMSKDESID[pY]VPMLDM [peptide Y719P]
